The record followed here is PMC7159909.

This series can be described thus: Co-IP and immunoblot, WSN-infected A549. The note with it: glycan lost; control: si-ctrl.

B1: interferon regulatory factor-5 (IRF5): si-OGT (protein)
parent chain: MNQSIPVAPTPPRRVRLKPWLVAQVNSCQYPGLQWVNGEKKLFCIPWRHATRHGPSQDGDNTIFKAWAKETGKYTEGVDEADPAKWKANLRCALNKSRDFRLIYDGPRDMPPQPYKIYEVCSNGPAPTDSQPPEDYSFGAGEEEEEEEELQRMLPSLSLTEDVKWPPTLQPPTLQPPVVLGPPAPDPSPLAPPPGNPAGFRELLSEVLEPGPLPASLPPAGEQLLPDLLISPHMLPLTDLEIKFQYRGRPPRALTISNPHGCRLFYSQLEATQEQVELFGPISLEQVRFPSPEDIPSDKQRFYTNQLLDVLDRGLILQLQGQDLYAIRLCQCKVFWSGPCASAHDSCPNPIQREVKTKLFSLEHFLNELILFQKGQTNTPPPFEIFFCFGEEWPDRKPREKKLITVQVVPVAARLLLEMFSGELSWSADSIRLQISNPDLKDRMVEQFKELHHIWQSQQRLQPVAQAPPGAGLGVGQGPWPMHPAGMQ
With B1, the “other: ubiquitination” value is listed as “decreases”.
